Assay results as given in patent US20170247434A1 (DEUTSCHES KREBSFORSCHUNGSZENTRUM, published 2017).

Assays:
[1] = molecular target: T1, P domain of norovirus GII.10 (Vietnam026) (Norovirus GII.10 Vietnam026); assay: direct ELISA; plates coated with 7 µg/ml GII.10 P domain; His-tagged nanobody serially diluted from ˜10 µM; anti-His HRP
T1 construct: domain: P domain; also called GII.10 P domain; GII.10 P domains

[2] = molecular target: T2, Norovirus GI.1 Norwalk virus virus-like particles (VLPs) (Norovirus GI.1 Norwalk virus, UniProt Q83884 1-530); assay: direct ELISA; plates coated with VLPs; His-tagged nanobody serially diluted from ˜10 µM; anti-His HRP
T2 construct: also called GI.1 VLPs; the member of genogroup I included in this study
T2 sequence: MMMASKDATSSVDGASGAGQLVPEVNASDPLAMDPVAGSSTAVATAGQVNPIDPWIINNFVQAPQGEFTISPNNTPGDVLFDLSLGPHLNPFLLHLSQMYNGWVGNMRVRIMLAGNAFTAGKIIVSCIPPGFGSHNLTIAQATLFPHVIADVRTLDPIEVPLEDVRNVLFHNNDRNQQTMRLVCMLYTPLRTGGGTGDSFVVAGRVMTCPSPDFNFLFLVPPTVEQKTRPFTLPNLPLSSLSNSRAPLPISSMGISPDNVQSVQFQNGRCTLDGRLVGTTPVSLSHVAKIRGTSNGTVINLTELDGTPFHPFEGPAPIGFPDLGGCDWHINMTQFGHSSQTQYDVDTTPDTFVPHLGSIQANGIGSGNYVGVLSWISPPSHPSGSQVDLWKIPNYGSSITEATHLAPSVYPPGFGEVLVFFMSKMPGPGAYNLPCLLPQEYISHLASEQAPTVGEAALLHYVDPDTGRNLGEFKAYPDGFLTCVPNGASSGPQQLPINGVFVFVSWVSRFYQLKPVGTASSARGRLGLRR

[3] = molecular target: T3, Norovirus GII.12 Hiro virus-like particles (VLPs) (Norovirus GII.12 Hiro); assay: direct ELISA; plates coated with 2 µg/ml VLPs; His-tagged nanobody serially diluted from ˜10 µM; anti-His HRP
T3 construct: also called GII.12 VLPs

[4] = molecular target: T4, Norovirus GII.4 NSW-2012 virus-like particles (VLPs) (Norovirus GII.4 NSW-2012, UniProt P54635 1-538); assay: as above
T4 construct: also called GII.4 VLPs; GII.4 (NSW-2012) VLPs
T4 chain: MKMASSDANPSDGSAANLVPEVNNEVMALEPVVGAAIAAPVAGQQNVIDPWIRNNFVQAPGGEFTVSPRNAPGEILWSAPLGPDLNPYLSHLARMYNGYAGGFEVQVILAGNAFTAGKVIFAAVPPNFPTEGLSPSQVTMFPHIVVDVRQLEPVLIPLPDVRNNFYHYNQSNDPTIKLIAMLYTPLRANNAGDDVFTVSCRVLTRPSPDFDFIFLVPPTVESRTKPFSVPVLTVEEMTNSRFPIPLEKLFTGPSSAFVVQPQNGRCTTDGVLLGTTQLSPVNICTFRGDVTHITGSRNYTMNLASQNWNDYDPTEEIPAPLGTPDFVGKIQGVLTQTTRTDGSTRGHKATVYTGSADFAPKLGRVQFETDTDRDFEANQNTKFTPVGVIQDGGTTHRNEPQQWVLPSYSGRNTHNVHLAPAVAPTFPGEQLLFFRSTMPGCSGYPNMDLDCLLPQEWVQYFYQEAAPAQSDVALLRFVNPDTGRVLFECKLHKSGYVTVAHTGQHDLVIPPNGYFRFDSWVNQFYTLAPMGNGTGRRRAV

[5] = molecular target: T5, Norovirus GII.10 Vietnam026 virus-like particles (VLPs) (Norovirus GII.10 Vietnam026)
T5 chain: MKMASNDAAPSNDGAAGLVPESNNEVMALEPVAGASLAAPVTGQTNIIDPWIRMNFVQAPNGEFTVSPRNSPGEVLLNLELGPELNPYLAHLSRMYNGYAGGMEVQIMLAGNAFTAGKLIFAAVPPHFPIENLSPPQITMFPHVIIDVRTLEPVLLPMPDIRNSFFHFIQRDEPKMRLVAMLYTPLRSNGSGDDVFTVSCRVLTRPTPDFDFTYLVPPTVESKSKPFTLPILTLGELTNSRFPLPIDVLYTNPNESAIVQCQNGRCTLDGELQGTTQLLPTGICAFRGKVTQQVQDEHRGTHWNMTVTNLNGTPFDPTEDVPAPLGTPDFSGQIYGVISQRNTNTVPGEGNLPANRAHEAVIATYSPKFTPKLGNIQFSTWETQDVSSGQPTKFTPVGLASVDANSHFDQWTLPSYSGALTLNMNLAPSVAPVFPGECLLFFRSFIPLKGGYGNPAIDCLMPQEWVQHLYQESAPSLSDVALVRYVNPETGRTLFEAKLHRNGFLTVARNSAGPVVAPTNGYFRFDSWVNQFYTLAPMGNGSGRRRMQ

[6] = molecular target: T4, Norovirus GII.4 NSW-2012 virus-like …
[7] = molecular target: T5, Norovirus GII.10 Vietnam026 virus-like …; assay: direct ELISA; plates coated with 2 µg/ml VLPs; His-tagged nanobody serially diluted from ˜10 µM; anti-His HRP; detection limit OD 0.15

B1: Nano-85 (VHH)
VHH: DVQLVESGGGLVQPGGSLRLSCAASGSIFSIYAMGWYRQAPGKQRELVASISSGGGTNYADSVKGRFTISGDNAKNTVYLQMNSLKPEDTAVYYCKREDYSAYAPPSGSRGRGTQVTVSS
notes: also called the Nanobody; single-domain antibody (VHH) of the invention
[1]
  dilution at which P domains were detected: 17800 fold dilution
[2]
  dilution at which VLPs were detected: 4000 fold dilution
[3]
  dilution at which VLPs were detected: 32000 fold dilution
[4]
  dilution at which VLPs were detected: 32000 fold dilution
[5]
  IC50: < 10 µg/mL
[6]
  IC50: < 10 µg/mL
[7]
  dilution at which VLPs were detected: 64000 fold dilution
